From patent publication US20240279345A1, “ALPHA 5 BETA 1 INTEGRIN BINDING AGENTS AND USES THEREOF” (PASITHEA THERAPEUTICS CORP., priority 2021, published 2024)

What was measured:
U87MG cells = assay: Cellular detachment of U87MG cells from FN coated plates; assay type: cell-based; details: for antibody concentration at which cellular detachment was seen: A-15B08 at 1 and 3 hours, A2-7A05 only obvious at 3 hours; for cellular detachment (cell rounding) of U87MG cells from FN coated plates: antibodies 2.0-0.016 μg/mL, cRGD 20-0.16 μM, 1 hour and 3 hours
Procedure: The A-15B08 and A2-7A05 antibodies and cRGD were also tested for their ability to induce dissociation of cellular α5β1 integrin from FN. U87MG cells (HTB-14™, ATCC, Manassas, VA) which were originally derived from a Glioblastoma tumor, are known to express α5β1 integrin, and adhere to FN coated plates. After an overnight incubation on FN coated plates, the U87MG cells formed a loosely packed monolayer and have extended spindle shapes. If the cells are induced to detach from the plates, by trypsin for example, the attachment points are released, and the cells become round. This type of change in morphology was used to assess whether the antibodies and the small molecule inhibitor cRGD can induce U87MG cells to dissociate from FN coated plates.
The following method was used to assess cellular detachment activity: A 96-well cell culture plate (Thermo Fisher Scientific, Waltham, MA, cat. no. 165306) was coated with FN (Human Fibronectin, R&D Systems, Minneapolis, MN 55413, cat. no. 1918-FN) by incubation of 50 uL per well 32 μg/mL FN in 1×PBS for 1 hour at 37° C., then washed 2× with EMEM media (ATCC, Manassas, VA, cat. no. 30-2003) supplemented with 10% Fetal Bovine Serum (FBS; ATCC, Manassas, VA, cat. no. 30-2021). U87MG cells were plated at 20,000 cells per well in EMEM media+10% FBS overnight to allow for maximum adherence. The next day the media was replaced with fresh media that included a 1:5 dilution series of antibodies A-15B08, A2-7A05 or isotype control IgG4 at concentrations of 2.0, 0.4, 0.08 and 0.016 μg/mL or cRGD at 20, 4, 0.8 and 0.16 μM. All tests were run in duplicate. Cell morphology was assessed, and images were captured using a 10× objective of an ECHO Rebel light microscope (ECHO, San Diego, CA).

[1] = target: T1, binding of α5β1 integrin to fibronectin (FN) (Homo sapiens, UniProt P05556+P08648); assay: Quantitative FN inhibition (FN-blocking) assay in ELISA format; assay type: biochemical; details: by ELISA
T1 construct: purchased Acro Biosystems IT1-H52W5
From the text: To determine whether the 9 unique hybridoma clones selected as described in Example 4 were able to inhibit the binding of α5β1 integrin to fibronectin (FN), the antibodies were first purified from hybridoma supernatants by Protein A chromatography, protein concentrations measured by BCA assay (Pierce™ BCA Protein Assay Kit; Thermo Fisher Scientific, Waltham, MA, cat. no. 23225) and then tested in a quantitative FN inhibition assay in an ELISA format.
Immulon4 HBX ELISA 96-well plates were coated with FN by incubation overnight at 4° C. with 2.5 μg/mL human FN (R&D Systems, Minneapolis, MN 55413, cat. no. 1918-FN) in 1×PBS (0.01M phosphate buffer and 0.154M NaCl, pH 7.4). Plates were then washed 3 times with Wash Buffer (1× Tris Buffered Saline containing 0.05% Tween20), blocked with 2% BSA in 1×TBS for 2 hours at room temperature (RT). Antibodies were diluted in Standard Diluent (2% BSA, 1×TBS, 0.05% Tween20) containing 0.1 μg/mL rh-α5β1-6×His tagged protein (Acro Biosystems, Newark, DE, cat. no. IT1-H52W5), to generate an 11 point 1:3 antibody dilution series ranging from 10,000 ng/mL to 0.17 ng/mL. Isotype control antibody (Control Ab; Ms IgG2a EMD Millipore Corp, Billerica, MA, cat. no. PP102) was used to normalize data across different assay runs. For the assays, 100 uL of the antibody dilution series/His-tagged-α5β1 mixture was added to the wells after the blocking solution was removed and wells were washed 3 times. Following 1 hour at RT, the wells were washed 3 times, incubated with biotinylated Anti-6×His-Tag Ab (Invitrogen, Carlsbad, CA, cat. no. MAI-21315-BTIN) at 1:1000 in Standard Diluent for 1 hour, washed 3 times, incubated for 30 minutes with poly-HRP Streptavidin (Thermo Fisher Scientific, Waltham, MA, cat. no. N200), washed 4 times, incubated with TMB substrate (Thermo Fisher Scientific, Waltham, MA, cat. no. N301) for 2-5 minutes, followed by addition of ELISA Stop Solution (Invitrogen, Carlsbad, CA, cat. no. SS04). Absorbance 450 nm was measured. Data points were normalized to the isotype Control Ab values at each concentration and reported as % Absorbance 450 nm normalized to Control Ab. Non-linear regression analysis was used to fit curves (4-parameter) to the data using GraphPad Prism version 9.0.2 (GraphPad Software, LLC, San Diego, CA).
Freeze-thaw stability was tested on a small aliquot of each chimera antibody by overnight storage at −80° C. followed by thaw on ice, repeated three times. […] IC50s were calculated by non-linear regression analysis curve-fitting (4-parameter) of the ELISA data (FIG. 5) using GraphPad Prism version 9.0.2 (GraphPad Software, LLC, San Diego, CA). […]

T1 sequence (P08648 42-894 limits assumed): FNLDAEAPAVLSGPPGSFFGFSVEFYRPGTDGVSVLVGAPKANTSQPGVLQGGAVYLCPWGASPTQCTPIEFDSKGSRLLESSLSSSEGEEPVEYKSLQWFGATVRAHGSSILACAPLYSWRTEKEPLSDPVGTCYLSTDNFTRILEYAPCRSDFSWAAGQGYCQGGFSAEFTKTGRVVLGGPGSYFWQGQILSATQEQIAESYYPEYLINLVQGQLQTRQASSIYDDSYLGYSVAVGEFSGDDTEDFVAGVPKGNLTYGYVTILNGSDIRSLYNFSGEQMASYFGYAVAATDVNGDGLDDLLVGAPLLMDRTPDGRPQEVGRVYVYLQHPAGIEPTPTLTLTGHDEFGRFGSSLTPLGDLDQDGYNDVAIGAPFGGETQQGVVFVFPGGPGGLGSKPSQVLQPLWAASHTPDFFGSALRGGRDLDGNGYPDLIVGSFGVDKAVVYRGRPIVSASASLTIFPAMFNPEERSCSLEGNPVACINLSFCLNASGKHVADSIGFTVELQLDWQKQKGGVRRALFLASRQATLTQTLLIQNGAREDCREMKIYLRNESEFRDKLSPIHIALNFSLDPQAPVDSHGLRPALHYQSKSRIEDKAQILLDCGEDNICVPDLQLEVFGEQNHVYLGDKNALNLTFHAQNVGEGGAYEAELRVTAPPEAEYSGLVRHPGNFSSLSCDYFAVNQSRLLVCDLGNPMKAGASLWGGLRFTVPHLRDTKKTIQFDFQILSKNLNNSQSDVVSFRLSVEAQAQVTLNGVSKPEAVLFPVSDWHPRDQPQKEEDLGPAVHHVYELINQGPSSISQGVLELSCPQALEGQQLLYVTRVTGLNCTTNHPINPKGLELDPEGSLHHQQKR
T1 sequence (P08648 895-995 limits assumed): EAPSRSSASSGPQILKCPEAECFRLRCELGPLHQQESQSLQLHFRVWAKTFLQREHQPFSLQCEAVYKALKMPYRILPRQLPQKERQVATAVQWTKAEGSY
T1 sequence (P05556 21-728 limits assumed): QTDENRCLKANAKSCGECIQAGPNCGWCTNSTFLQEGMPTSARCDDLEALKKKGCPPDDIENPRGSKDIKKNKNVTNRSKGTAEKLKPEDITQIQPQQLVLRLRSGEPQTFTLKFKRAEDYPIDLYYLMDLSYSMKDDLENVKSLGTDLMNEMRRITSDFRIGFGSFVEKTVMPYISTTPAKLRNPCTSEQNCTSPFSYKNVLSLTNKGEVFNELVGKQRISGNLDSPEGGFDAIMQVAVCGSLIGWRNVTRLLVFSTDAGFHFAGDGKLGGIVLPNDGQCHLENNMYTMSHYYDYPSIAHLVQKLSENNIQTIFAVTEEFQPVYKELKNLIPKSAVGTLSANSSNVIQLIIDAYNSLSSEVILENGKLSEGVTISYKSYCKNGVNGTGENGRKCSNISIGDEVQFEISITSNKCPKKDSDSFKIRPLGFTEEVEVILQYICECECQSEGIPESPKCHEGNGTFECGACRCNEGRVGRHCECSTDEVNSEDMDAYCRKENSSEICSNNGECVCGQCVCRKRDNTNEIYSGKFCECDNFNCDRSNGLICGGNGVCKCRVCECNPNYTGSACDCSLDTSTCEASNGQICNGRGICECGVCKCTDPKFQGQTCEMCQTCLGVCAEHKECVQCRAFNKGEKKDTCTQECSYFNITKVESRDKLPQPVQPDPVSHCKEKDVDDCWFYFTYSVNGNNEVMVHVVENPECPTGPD

| Molecule | antibody concentration at which cellular detachment was seen (U87MG cells) [µg/mL] | cellular detachment (cell rounding) of U87MG cells from FN coated plates (U87MG cells) | class of FN binding blocker [1] |
| --- | --- | --- | --- |
| A2-7A05: anti-α5β1 antibody, VH SEQ ID NO:77, VL SEQ ID NO:78; tested as mouse hybridoma antibody and as human IgG4 chimera (antibody, V domains shown, A2-7A05 VH Sequence; A2-7A05 VL Sequence, tested as mouse hybridoma antibody and as human IgG4 chimera) VH: QVQLQQPGAELVKPGASVKLSCKASGYTFTIYWINWVKQRPGQGLEWIGKIYPGSISTDYNEKFKSKATLTVDTSSSTAYMQLSSLTSDDSAVYYCAITGTGGLAYWGQGTLVTVSA VL: ENVLTQSPAIMSASLGEKVTMTCRASSSVNYMYWYQQKSDASPKLWIYFTSSLAPGVPGRFSGSGSGNSYSLTISTMEGEDAATYYCQQFTTSPFTFGSGTKLEIK | 0.4 | much lower level | partial blocker of FN binding |
| A-15B08: anti-α5β1 antibody, VH SEQ ID NO:25, VL SEQ ID NO:26; tested as mouse hybridoma antibody and as human IgG4 chimera (antibody, V domains shown, A-15B08 VH Sequence; A-15B08 VL Sequence, tested as mouse hybridoma antibody and as human IgG4 chimera) VH: QVQLKESGPGLVAPSQSLSITCTISGFSLTSYGVHWVRQPPGKGLEWLVVIWSDGSTTYNSTLKSRLSISKDNSKSQVFFKMNSLQTDDTAMYYCARHYDYDGDWFAYWGQGTLVTVSA VL: QIVLTQSPAIMSASLGERVTMTCTASSRVSSNSLHWYQQKPGSSPKLWIYSTSNLASGVPARFSGSGSGTSYSLTISSMEAEDAATYYCHQYLRSPPTFGGGTKLEIK | 0.4 | significant cell rounding | strong blockers of FN binding |
